The values that follow come from patent US20080235824A1, “Use of Esterase Genes as Selectable Markers for Transforming Plant Cells” (priority 2006, published 2008).

Assay [1] can be described thus: Rhodamine lipase assay with crude plant leaf extracts. The note with it: 0.025 ml droplets (crude leaf extract or 20 U porcine lipase); 30 C overnight. The class given is biochemical. The text has this:
For transient expression assays of bovine PGE, the plant transformation and expression vectors constructed in Example 12 were moved into A. tumefaciens strain GV2260 by either electroporation or bacterial conjugation as described (Kapila et al., 1997). GV2260 carrying pIPG745 or pIPG746 was used for transient expression in tobacco, pepper, tomato, citrus, geranium, and rice plants as described (Kapila et al. 1997; Duan et al., 1999; Wroblewski et al. 2005). Cultures of Agrobacterium harboring the constructs of interest were grown in minimal medium in the presence of acetosyringone to induce the Agrobacterium vir genes. The optical density of the cultures was maintained at 0.008 for pepper and tomato and at 0.25 for citrus, geranium and rice. Strain GV2260 was flooded into healthy, young, fully expanded leaves of vigorous plants into the apoplastic space through open stomata by injection using a tuberculin syringe without a needle, flooding entire leaves. […]
Two lipase/esterase activity assays were used. […] Lower intensity fluorescence was also observed from the empty vector controls. In order to quantify the difference, 0.2 ml of the rhodamine olive oil suspension was mixed with 0.1 ml of plant extract and allowed to incubate at 30 C for 24 hrs. Fluorescence was measured using a Tecan Spectraluor Plus spectrofluorimeter (excitation=360 nm; emission=535 nm).

Assay [2] can be described thus: Phenol red lipase/esterase assay with crude plant leaf extracts. The class given is biochemical. An excerpt: In this Figure, the first tube on the left (labeled “Buffer”) contains phenol red buffer and Tween 20 (the dark red color appears dark in this black and white figure); the second tube to the right (“SL”) has 4 Units of Sigma porcine pancreatic lipase added (the bright yellow color appears light); the third tube to the right (labeled “731”) has a twenty microliter droplet of a crude tomato plant leaf extract from leaves inoculated 4 days earlier with GV2260 carrying “empty” (ie., no lipase gene) expression vector pIPG731 (the dark red color appears dark), and the fourth tube to the right (“768 WI”) has a twenty microliter droplet of crude tomato plant leaf extract from leaves inoculated four days earlier with GV2260 carrying cloned bovine pregastric esterase expressed in pIPG768 (the bright yellow color appears light). Tomato leaf tissue particles may be seen floating in the third and fourth tubes to the right. […] The photo was taken 16 hrs. after start of the assay.
For transient expression assays of bovine PGE, the plant transformation and expression vectors constructed in Example 12 were moved into A. tumefaciens strain GV2260 by either electroporation or bacterial conjugation as described (Kapila et al., 1997). GV2260 carrying pIPG745 or pIPG746 was used for transient expression in tobacco, pepper, tomato, citrus, geranium, and rice plants as described (Kapila et al. 1997; Duan et al., 1999; Wroblewski et al. 2005). Cultures of Agrobacterium harboring the constructs of interest were grown in minimal medium in the presence of acetosyringone to induce the Agrobacterium vir genes. The optical density of the cultures was maintained at 0.008 for pepper and tomato and at 0.25 for citrus, geranium and rice. Strain GV2260 was flooded into healthy, young, fully expanded leaves of vigorous plants into the apoplastic space through open stomata by injection using a tuberculin syringe without a needle, flooding entire leaves. After 3-4 days, two grams of leaf tissue (fresh weight), was ground in liquid nitrogen to a fine powder, and 0.5 ml of ice cold phosphate buffered saline (PBS; 137 mM NaCl, 2.7 mM KCl, 10 mM potassium phosphate, pH 7.4) was added and mixed thoroughly at 4 C. The mixture was mixed on an orbital shaker at 4 C for 30 minutes, and plant debris was pelleted at 10,000×g for 15 minutes and discarded. The supernatants from these crude plant leaf extracts were directly used in lipase/esterase assays.
The second activity assay was a phenol red lipase/esterase assay using tributyrin, olive oil or Tween 20 as substrates as described by Singh et al. (2006), except that liquid medium, rather than solidified agar medium, was used. Twenty microliter droplets of crude plant leaf extracts and the positive control were placed in the tributyrin/phenol red medium containing tributyrin, olive oil or Tween 20 and incubated at 30 C overnight. […] Transient expression of bovine PGE was confirmed in tobacco, pepper, tomato, citrus, geranium, and rice plants.
For transient expression assays, the plant transformation and expression vectors constructed in Example 15 were moved into A. tumefaciens strain GV2260 by electroporation. GV2260 carrying pIPG823 was used for transient expression in tobacco and geranium plants exactly as described in Example 20. The supernatants from crude plant leaf extracts were directly used in phenol red lipase/esterase assays using tributyrin and olive oil as substrates exactly as described in Example 20.

B1: porcine lipase: Commercial porcine pancreatic lipase, positive control of the lipase/esterase assays (protein, UniProt P00591 1-450, looked up)
Pancreatic triacylglycerol …: SEVCFPRLGCFSDDAPWAGIVQRPLKILPWSPKDVDTRFLLYTNQNQNNYQELVADPSTITNSNFRMDRKTRFIIHGFIDKGEEDWLSNICKNLFKVESVNCICVDWKGGSRTGYTQASQNIRIVGAEVAYFVEVLKSSLGYSPSNVHVIGHSLGSHAAGEAGRRTNGTIERITGLDPAEPCFQGTPELVRLDPSDAKFVDVIHTDAAPIIPNLGFGMSQTVGHLDFFPNGGKQMPGCQKNILSQIVDIDGIWEGTRDFVACNHLRSYKYYADSILNPDGFAGFPCDSYNVFTANKCFPCPSEGCPQMGHYADRFPGKTNGVSQVFYLNTGDASNFARWRYKVSVTLSGKKVTGHILVSLFGNEGNSRQYEIYKGTLQPDNTHSDEFDSDVEVGDLQKVKFIWYNNNVINPTLPRVGASKITVERNDGKVYDFCSQETVREEVLLTLNPC
For the molecule B1, the “Fluorescence on rhodamine olive oil agar plates” value in assay [1] is given as “Bright fluorescent spots”. Further, in assay [2] (Tween 20 substrate, 16 hrs after start, tomato leaf extract or 4 Units lipase), the “Phenol red indicator tube color (FIG. 2)” value is reported as “bright yellow”. Also, the “Phenol red indicator color change” value in assay [2] (substrates tributyrin and olive oil, extracts of tobacco and geranium leaves, nematode esterase construct) is given as “color change from red to bright yellow”; in assay [2] (substrates tributyrin, olive oil or Tween 20, twenty microliter droplets, 30 C overnight, bovine PGE constructs), “color change from red to bright yellow”. Further, the “Substrates utilized in phenol red lipase/esterase assay” value in assay [2] (transiently plant-expressed enzyme or positive control) is “utilized all three substrates: tributyrin, olive oil and Tween 20”.
